Measurements: US5306619, “Screening assay for the detection of DNA-binding molecules” (Genelabs Technologies, Inc.)

What was measured:
UL9 full length = UL9 full length (Herpes simplex virus 1, UniProt P10193 P10193:1-851); test: EMSA; dissociation time at 4 C, competition with SEQ 16; conditions: protein: extract; tags: baculovirus/Sf9 expressed, partially purified extract; label: 32P
[1] = target: UL9-COOH (C-terminal 317 aa of HSV UL9) (Herpes simplex virus 1, UniProt P10193 P10193:535-851); test: EMSA; dissociation time at 4 C, competition with SEQ 16; 20 mM HEPES pH 7.2, 50 mM KCl, 1 mM DTT; conditions: tags: GST fusion from pGEX-2T, thrombin cleaved; crude E. coli extracts also used; label: 32P
Sequence of UL9-COOH (C-terminal 317 aa of HSV UL9) (P10193 535-851, one chain of several): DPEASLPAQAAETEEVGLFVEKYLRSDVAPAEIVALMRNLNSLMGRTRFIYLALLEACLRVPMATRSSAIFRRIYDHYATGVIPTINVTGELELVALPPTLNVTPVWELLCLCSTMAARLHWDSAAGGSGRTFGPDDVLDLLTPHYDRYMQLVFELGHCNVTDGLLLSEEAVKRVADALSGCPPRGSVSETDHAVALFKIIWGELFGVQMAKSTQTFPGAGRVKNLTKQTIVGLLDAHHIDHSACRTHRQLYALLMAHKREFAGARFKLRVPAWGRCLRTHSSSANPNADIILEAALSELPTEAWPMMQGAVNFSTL

Sequence of UL9 full length (P10193 whole entry, the tested form may be a part, one chain of several): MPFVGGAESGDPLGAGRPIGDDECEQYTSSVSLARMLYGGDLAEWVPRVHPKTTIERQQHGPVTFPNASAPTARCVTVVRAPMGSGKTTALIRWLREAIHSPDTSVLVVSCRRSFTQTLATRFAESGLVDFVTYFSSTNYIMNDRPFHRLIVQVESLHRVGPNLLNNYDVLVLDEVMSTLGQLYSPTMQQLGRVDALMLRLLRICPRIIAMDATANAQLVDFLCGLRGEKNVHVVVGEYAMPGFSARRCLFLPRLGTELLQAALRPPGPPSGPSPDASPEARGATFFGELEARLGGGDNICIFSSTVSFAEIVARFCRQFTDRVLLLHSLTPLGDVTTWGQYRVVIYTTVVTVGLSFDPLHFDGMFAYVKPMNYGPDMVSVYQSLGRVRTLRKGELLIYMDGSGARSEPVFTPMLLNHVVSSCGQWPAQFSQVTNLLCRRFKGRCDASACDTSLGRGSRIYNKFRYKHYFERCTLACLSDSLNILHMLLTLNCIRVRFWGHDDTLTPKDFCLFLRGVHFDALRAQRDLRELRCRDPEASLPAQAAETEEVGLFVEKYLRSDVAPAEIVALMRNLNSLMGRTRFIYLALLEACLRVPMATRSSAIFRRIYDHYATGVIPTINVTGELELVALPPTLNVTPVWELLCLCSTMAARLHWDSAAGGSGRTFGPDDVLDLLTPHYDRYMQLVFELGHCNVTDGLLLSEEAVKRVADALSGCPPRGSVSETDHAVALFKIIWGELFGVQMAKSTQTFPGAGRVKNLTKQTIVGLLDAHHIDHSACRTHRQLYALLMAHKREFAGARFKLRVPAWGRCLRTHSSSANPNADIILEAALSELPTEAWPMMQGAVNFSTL

B1: FIG. 4 HSV oriS oligonucleotide (dsDNA)
DNA 1: AAGTGAGAATTCGAAGCGTTCGCACTTCGTCCCAAT
DNA 2: ATTGGGACGAAGTGCGAACGCTTCGAATTCTCACTT
koff (UL9 full length): ~4 h
koff [1]: ~4 h
